Experiments:
Assay in all cases: stopped-flow fluorescence; association: 25 nM fluorescein-labelled APC mixed 1:1 by volume with 250-2,000 nM β-catenin (pseudo first-order); dissociation: pre-formed 1:1 complex (200 nM) mixed with 10 times molar excess of the same APC construct; PBS, 1 mM DTT; 15°C
[1] = target: APCabc with the flexible linker (FL) inserted between residues 1,478 and 1,479, fluorescein-labelled at Cys 1501 (UniProt P25054)
[2] = target: APCabc, third 20aa repeat (R3) region of APC with subdomains a, b and c, fluorescein-labelled at Cys 1501 (UniProt P25054)
[3] = target: pAPCabc D1486S, fluorescein-labelled at Cys 1501 (UniProt P25054)
[4] = target: pAPCabc with the flexible linker (FL) inserted between residues 1,500 and 1,501, fluorescein-labelled at Cys 1501 (UniProt P25054)
[5] = target: pAPCabc with the polyproline linker (PP) inserted between residues 1,500 and 1,501, fluorescein-labelled at Cys 1501 (UniProt P25054)
[6] = target: pAPCabc with the rigid linker (RL) inserted between residues 1,500 and 1,501, fluorescein-labelled at Cys 1501 (UniProt P25054)

armadillo (ARM) repeat domain of human β-catenin (residues 134–671), sequence (P35222 other isoform, or with tags, fused parts or gaps): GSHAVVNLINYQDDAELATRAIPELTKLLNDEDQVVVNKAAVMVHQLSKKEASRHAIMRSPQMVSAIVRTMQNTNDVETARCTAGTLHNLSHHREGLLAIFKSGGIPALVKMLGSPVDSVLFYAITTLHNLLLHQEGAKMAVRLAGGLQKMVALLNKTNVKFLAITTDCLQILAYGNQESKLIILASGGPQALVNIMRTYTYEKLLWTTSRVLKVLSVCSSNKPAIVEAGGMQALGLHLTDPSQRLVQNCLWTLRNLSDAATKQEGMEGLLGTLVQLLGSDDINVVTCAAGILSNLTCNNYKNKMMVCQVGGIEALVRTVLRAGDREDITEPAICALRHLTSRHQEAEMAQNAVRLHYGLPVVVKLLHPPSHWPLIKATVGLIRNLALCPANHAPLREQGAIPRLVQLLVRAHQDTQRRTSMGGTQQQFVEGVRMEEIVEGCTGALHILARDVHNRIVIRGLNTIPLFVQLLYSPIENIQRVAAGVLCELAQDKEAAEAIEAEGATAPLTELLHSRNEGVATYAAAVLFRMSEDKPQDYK

armadillo (ARM) repeat domain of human β-catenin (residues 134–671) (from UniProt P35222 134-671) (domain or fragment)
koff fast [1]: 0.77 s⁻¹ | koff slow [1]: 0.177 s⁻¹ | kon [1]: 8.35e+07 M⁻¹ s⁻¹ | time constant τ (from the fast off-rate) [1]: 0.9 s | koff fast [2]: 0.46 s⁻¹ | koff slow [2]: 0.11 s⁻¹ | kon [2]: 4.92e+07 M⁻¹ s⁻¹ | time constant τ (from the fast off-rate) [2]: 1.54 s | koff fast [3]: 2.89 s⁻¹ | koff slow [3]: 0.4 s⁻¹ | kon [3]: 1.51e+08 M⁻¹ s⁻¹ | time constant τ (from the fast off-rate) [3]: 0.24 s | koff fast [4]: 0.16 s⁻¹ | koff slow [4]: 0.0085 s⁻¹ | kon [4]: 1.01e+08 M⁻¹ s⁻¹ | time constant τ (from the fast off-rate) [4]: 4.45 s | koff fast [5]: 0.44 s⁻¹ | koff slow [5]: 0.018 s⁻¹ | kon [5]: 8.97e+07 M⁻¹ s⁻¹ | time constant τ (from the fast off-rate) [5]: 1.59 s | koff fast [6]: 0.21 s⁻¹ | koff slow [6]: 0.0122 s⁻¹ | kon [6]: 1.02e+08 M⁻¹ s⁻¹ | time constant τ (from the fast off-rate) [6]: 3.52 s

From PMC9214244, “Multivalent Interaction of Beta-Catenin With its Intrinsically Disordered Binding Partner Adenomatous Polyposis Coli” (Frontiers in Molecular Biosciences, 2022)
